Measured values taken from publication doi:10.1101/2025.04.28.650843 (bioRxiv, 2025).

Target: the molecule itself
Experiment: cryo-EM structure; single-particle reconstruction of intact PBS isolated from Synechococcus 7942 in 0.75 M K/Na-PO4 pH 7.0 with 0.0125% glutaraldehyde; diluted on the grid with 50 mM Tris pH 7.0; 2.98 Å

B1: phycocyanin (PC) (complex)
chain 1: not shown
chain 2: MTFDAFTKVVAQADARGEFLSDAQLDALSRLVAEGNKRIDTVNRITGNASSIVANAARALFAEQPSLIAPGGNAYTNRRMAACLRDMEIILRYVTYAVFTGDASILDDRCLNGLRETYLALGVPGASVAEGVRKMKDAAVAIVSDRNGITQGDCSAIISELGSYFDKAAAAVA
modifications: covalently attached phycocyanobilin (PCB), positions not printed | covalently attached phycocyanobilin (PCB), positions not given
notes: as m5; as m2; The alpha-beta monomer; it forms the hexamers of the peripheral rods (72 alpha-beta monomers in six rods of two hexamers each); also called alpha-beta monomer of phycocyanin
Q: How did the “stoichiometry N” value turn out when B1 was run?
A: The value was 6.
